Experimental data published in patent US7407939.
Where no end group is shown, it is not given here. [ ]: non-standard residue; d: D form. The star is where a group is joined. X1 = 5‑aminoethylsulfonamide isoquinoline, O=S(=O)(NCCN*)c1cccc2cnccc12; hLeu = CC(C)CC[C@H](N)C(=O)O; Orn = NCCC[C@H](N)C(=O)O; Dab = NCC[C@H](N)C(=O)O

What was measured:
protein kinase B = protein kinase B (UniProt P31749); test: cell-based or functional assay
[1] = molecular target: protein kinase A, catalytic subunit; test: cell-based or functional assay

protein kinase B, sequence (P31749 whole entry): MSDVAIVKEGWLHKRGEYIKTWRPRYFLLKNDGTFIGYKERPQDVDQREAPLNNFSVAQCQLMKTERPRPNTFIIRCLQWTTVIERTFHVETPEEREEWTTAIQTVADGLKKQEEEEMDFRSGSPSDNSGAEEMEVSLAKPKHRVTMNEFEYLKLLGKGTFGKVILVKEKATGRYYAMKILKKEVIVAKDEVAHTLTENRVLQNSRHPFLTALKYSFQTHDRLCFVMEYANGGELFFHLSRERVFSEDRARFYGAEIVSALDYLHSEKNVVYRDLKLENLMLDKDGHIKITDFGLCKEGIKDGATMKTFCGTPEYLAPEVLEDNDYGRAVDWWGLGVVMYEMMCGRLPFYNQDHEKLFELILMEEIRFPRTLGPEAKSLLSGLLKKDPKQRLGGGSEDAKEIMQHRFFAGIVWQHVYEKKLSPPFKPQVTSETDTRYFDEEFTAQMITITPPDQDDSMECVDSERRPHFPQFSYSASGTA

Row | % inhibition of kinase activity at 1 µM; PKB-kinase (spa) Assay 1 (protein kinase B) [%] | % inhibition of kinase activity at 1 µM; PKB-kinase (spa) Assay 2 (protein kinase B) [%] | % inhibition of kinase activity at 1 µM; PKA-kinase Assay 1 [1] [%] | % inhibition of kinase activity at 1 µM; PKA-kinase Assay 2 [1] [%] | Binder
1 | 45 | 48 | 92 | 94 | RPR[Orn]E(X1)[Dab][hLeu] (not fully specified (C-terminus)) [TY-60020-10]
2 | 71 | 57 | 96 | 97 | RPR[Orn]E(X1)[Dab]F (not fully specified (C-terminus)) [TY-60020-9]
3 | 58 | 52 | 95 | 96 | RPR[Orn]E(X1)[Orn]F (not fully specified (C-terminus)) [TY-60020-11]
